Measurements from patent publication US20250270315A1 (ELPISCIENCE SUZHOU BIOPHARMA, published 2025).

Assays:
[1] = target: T1, human SIRPβ stably expressed on CHOK1 cells (human, UniProt O00241 30-398); experiment: FACS, CHOK1-hSIRPβ cells (columns c6 and c7 read as swapped)
T1 construct: whole, on cells; also called CHOK1-human SIRPB; CHOK1-hSIRPβ
Description: (§1) All the humanized antibodies as tested were confirmed to retain the similar activity as the parental antibody of 025c to bind to SIRP family members.

[2] = target: T2, human SIRPα v2 ECD recombinant protein (tag not given) (human); experiment: competitive ELISA, mFc-CD47 ECD on coated SIRPα v2 ECD
T2 construct: extracellular domain; also called ELISA microplate coated human SIRPα v2 ECD
Procedure: (§2) Competitive ELISA assay was used to determine whether the purified chimeric antibodies can block CD47 and SIRPα interaction. Briefly, antibody and mFc tagged human CD47 ECD recombinant protein were co-incubated with ELISA microplate coated human SIRPα v1 ECD (FIGS. 6A and 6B) or human SIRPα v2 ECD (FIGS. 7A and 7B) recombinant protein. After washing, HRP labeled anti-mouse Fc 2nd antibody (Sigma) was added and incubated at 37° C. for 1 hour. Then, 100 μl/well of TMB solution (Biotechnology) was added. After incubation for 15 minutes at room temperature, the reaction was stopped by the addition of 50 μl of 1N HCl. OD 450 nm was read. Blocking ratio was determined by blockade of human CD47 ECD recombinant protein binding to ELISA microplate coated human SIRPα ECD recombinant protein. Other than 005, all antibodies as tested can block interaction between human CD47 and different human SIRPα variants.
(§3) The humanized antibodies were tested for the ability to block CD47 and SIRPα interaction with competitive ELISA assay (refer to methods described in Example 4.2.3.).

[3] = target: full length human SIRPα v1 with a small beta-gal fragment (ED) fused to its C-terminal, expressed in K562 … (human, UniProt P78324 31-504); experiment: cell-based or functional assay
Chain of full length human SIRPα v1 with a small beta-gal fragment (ED) fused to its C-terminal, expressed in K562 … (P78324 31-504): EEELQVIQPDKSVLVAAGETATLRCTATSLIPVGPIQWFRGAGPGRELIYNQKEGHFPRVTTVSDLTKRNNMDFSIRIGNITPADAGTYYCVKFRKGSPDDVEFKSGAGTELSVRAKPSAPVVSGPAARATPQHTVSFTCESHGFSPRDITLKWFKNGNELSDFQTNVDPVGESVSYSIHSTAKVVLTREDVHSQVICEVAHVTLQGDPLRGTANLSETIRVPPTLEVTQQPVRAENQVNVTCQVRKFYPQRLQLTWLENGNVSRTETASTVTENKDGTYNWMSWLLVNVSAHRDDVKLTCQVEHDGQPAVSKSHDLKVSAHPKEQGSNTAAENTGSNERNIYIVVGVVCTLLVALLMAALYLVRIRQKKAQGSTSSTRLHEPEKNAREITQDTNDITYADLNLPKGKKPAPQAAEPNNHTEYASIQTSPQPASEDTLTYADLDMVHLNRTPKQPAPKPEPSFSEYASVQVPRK

[4] = target: T3, full length human SIRPα v1 stably expressed on CHOK1 or 293F cells (human, UniProt P78324 31-504); experiment: FACS, CHOK1-hSIRPα v1 cells
T3 construct: whole, on cells; also called CHOK1-human SIRPα v1; CHOK1-hSIRPα v1
T3 sequence (P78324 31-504): as above
Description: as §1

[5] = target: T1, human SIRPβ stably expressed on CHOK1 …; experiment: FACS, CHOK1 cells stably expressing human SIRPβ
Description: as §1

[6] = target: T4, human SIRPα v1 ECD recombinant protein (tag not given) (human, UniProt P78324 31-373); experiment: competitive ELISA, mFc-CD47 ECD on coated SIRPα v1 ECD
T4 construct: extracellular domain; also called biotin labeled soluble human SIRPα v1 ECD recombinant protein; ELISA microplate coated human SIRPα v1 ECD
T4 sequence (P78324 31-373): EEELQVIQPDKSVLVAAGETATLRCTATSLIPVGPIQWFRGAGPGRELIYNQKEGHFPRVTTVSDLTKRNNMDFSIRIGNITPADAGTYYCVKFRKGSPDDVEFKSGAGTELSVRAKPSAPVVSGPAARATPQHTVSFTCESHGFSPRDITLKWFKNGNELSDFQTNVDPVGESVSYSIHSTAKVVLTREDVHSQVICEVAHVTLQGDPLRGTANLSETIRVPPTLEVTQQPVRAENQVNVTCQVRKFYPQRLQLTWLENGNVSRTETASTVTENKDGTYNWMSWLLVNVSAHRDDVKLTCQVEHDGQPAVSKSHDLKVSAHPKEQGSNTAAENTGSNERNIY
Procedure: as §2, §3

[7] = target: T5, human SIRPγ stably expressed on 293F cells (human, UniProt Q9P1W8 29-387); experiment: FACS, 293F-hSIRPγ cells
T5 construct: whole, on cells
T5 sequence (Q9P1W8 29-387): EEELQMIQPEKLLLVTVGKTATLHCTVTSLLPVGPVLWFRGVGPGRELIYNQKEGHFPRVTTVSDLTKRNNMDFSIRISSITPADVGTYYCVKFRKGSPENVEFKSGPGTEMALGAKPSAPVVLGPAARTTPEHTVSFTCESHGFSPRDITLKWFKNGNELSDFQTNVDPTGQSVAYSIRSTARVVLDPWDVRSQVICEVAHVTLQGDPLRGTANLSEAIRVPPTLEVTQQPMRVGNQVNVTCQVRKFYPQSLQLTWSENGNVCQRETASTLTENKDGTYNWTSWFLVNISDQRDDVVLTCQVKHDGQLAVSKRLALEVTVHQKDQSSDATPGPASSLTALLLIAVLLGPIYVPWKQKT
Description: as §1

[8] = target: Human SIRPα v1 (antigen of the Octet and Biacore affinity measurements) (human, UniProt P78324 31-370, limits assumed); experiment: SPR (Biacore), 1:1 binding model
Chain of Human SIRPα v1 (antigen of the Octet and Biacore affinity measurements) (P78324 31-370 limits assumed): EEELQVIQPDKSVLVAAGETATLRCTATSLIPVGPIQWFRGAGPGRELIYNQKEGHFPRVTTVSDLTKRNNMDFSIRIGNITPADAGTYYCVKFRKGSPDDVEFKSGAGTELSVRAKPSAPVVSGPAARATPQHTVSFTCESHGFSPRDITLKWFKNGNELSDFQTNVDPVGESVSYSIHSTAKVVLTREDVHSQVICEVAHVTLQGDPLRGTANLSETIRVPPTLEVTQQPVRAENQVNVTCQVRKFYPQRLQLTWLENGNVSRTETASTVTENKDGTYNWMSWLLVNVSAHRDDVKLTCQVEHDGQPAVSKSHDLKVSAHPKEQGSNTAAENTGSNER
Procedure: The humanized antibodies were characterized for binding affinity against human SIRPα v1, human SIRPα v2 using Surface Plasmon Resonance technology (Biacore system). The association and dissociation curves were fit with 1:1 binding model, and the Ka/Kd/KD values for each antibody were calculated.

[9] = target: T3, full length human SIRPα v1 stably …; experiment: competitive FACS, mFc-CD47 ECD on CHOK1-human SIRPα v1 cells
Procedure: Competitive FACS assay was also set up to further compare the blocking activity of the humanized antibodies and reference antibodies. Briefly antibody and mFc tagged human CD47 ECD recombinant protein were co-incubated with CHOK1 cells stably expressing human SIRPα v1 (FIG. 16A) or human SIRPα v2 (FIG. 16B). After washing, dye labeled anti-mouse Fc 2nd antibody (Sigma) was added and incubated at 37° C. for 1 hour. Fluorescence intensity was detected. Blocking ratio was determined by blockade of human CD47 ECD recombinant protein binding to SIRPα expressed CHOK1 cells. […] In particular, HEFLB doesn't work at all for human SIRPα v2.

T1 sequence (O00241 30-398): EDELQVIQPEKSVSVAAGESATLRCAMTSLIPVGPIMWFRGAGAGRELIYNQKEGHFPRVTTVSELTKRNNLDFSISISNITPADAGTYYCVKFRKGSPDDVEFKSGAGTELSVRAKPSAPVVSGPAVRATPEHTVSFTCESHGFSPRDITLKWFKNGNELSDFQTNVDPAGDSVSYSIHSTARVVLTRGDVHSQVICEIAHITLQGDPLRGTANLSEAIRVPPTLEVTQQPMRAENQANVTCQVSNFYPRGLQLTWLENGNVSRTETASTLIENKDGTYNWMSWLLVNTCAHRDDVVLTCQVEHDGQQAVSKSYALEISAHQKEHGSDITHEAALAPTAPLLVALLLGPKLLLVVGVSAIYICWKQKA

| Binder | EC50 [1] | TOP MFI [1] | IC50 [2] | TOP blocking (%) [2] | SHP-1 recruitment blocking, IC50 [3] | SHP-1 recruitment blocking, TOP blocking (%) [3] | EC50 [4] | TOP MFI [4] | EC50 (read off the curve) [5] | IC50 [6] | TOP blocking (%) [6] | EC50 [7] | TOP MFI [7] | Kd [8] | koff [8] | kon [8] | IC50 [9] | TOP blocking (%) [9] |
| --- | --- | --- | --- | --- | --- | --- | --- | --- | --- | --- | --- | --- | --- | --- | --- | --- | --- | --- |
| hu025.021 (antibody, V domains shown, Humanized 025; also called hu025.21) VH: EVQLVQSGAEVKKPGATVKISCKVSGFNIKDYYMHWVQQAPGKGLEWIGRIDPEDAETKYAPKFQGRVTITADTSTNTAYMELSSLRSEDTAVYYCDRGLAYWGQGTLVTVSS VL: EIVLTQSPATLSLSPGERATLSCSASSSVSSSYLYWYQQKPGQAPKLWIYSTSNLASGIPARFSGSGSGTDYTLTISSLEPEDFAVYYCHQWSSYPYTFGQGTKLEIK | 0.68 nM | 72000 MFI | 1.96 nM | 98.3% | 0.1 nM | 86.3% | 1.08 nM | 56400 MFI | ~0.7 nM | 2.07 nM | 97.7% | 0.21 nM | 22100 MFI | 3.05 nM | 0.00183 s⁻¹ | 599000 M⁻¹ s⁻¹ |  |  |
| hu025.059 (antibody, V domains shown, Humanized 025; also called hu025.59) VH: EVQLVQSGAEVKKPGATVKISCKASGFNIKDYYMHWVQQAPGKGLEWIGRIDPEDAETKYAPKFQGRVTITADTSTNTAYMELSSLRSEDTAVYYCDRGLAYWGQGTLVTVSS VL: EIVLTQSPATLSLSPGERATLSCSASSSVSSSYLYWYQQKPGQAPKLWIYSTSNLASGIPARFSGSGSGTDYTLTISSLEPEDFAVYYCHQWSSYPYTFGQGTKLEIK | 0.67 nM | 73100 MFI | 2.03 nM | 98.3% | 0.1 nM | 78.8% | 1.05 nM | 59400 MFI | ~0.7 nM | 2.48 nM | 97.1% | 0.2 nM | 22700 MFI | 2.29 nM | 0.00123 s⁻¹ | 536000 M⁻¹ s⁻¹ |  |  |

More lines, in order of falling EC50 [1], values ahead:

| EC50 [1] | TOP MFI [1] | IC50 [2] | TOP blocking (%) [2] | SHP-1 recruitment blocking, IC50 [3] | SHP-1 recruitment blocking, TOP blocking (%) [3] | EC50 [4] | TOP MFI [4] | EC50 (read off the curve) [5] | IC50 [6] | TOP blocking (%) [6] | EC50 [7] | TOP MFI [7] | Kd [8] | koff [8] | kon [8] | IC50 [9] | TOP blocking (%) [9] | Binder |
| --- | --- | --- | --- | --- | --- | --- | --- | --- | --- | --- | --- | --- | --- | --- | --- | --- | --- | --- |
| 0.8 nM | 69700 MFI | 1.88 nM | 98.3% | 0.19 nM | 84.5% | 0.99 nM | 53800 MFI | ~0.7 nM | 2.22 nM | 97.2% | 0.21 nM | 20900 MFI |  |  |  |  |  | hu025.033 (antibody, V domains shown, Humanized 025) VH: EVQLVQSGAEVKKPGATVKISCKVSGFNIKDYYMHWVQQAPGKGLEWIGRIDPEDAETKYAPKFQGRVTITADTSTDTAYMELSSLRSEDTAVYYCDRGLAYWGQGTLVTVSS VL: EIVLTQSPATLSLSPGERATLSCSASSSVSSSYLYWYQQKPGQAPKLWIYSTSNLASGIPARFSGSGSGTDYTLTISSLEPEDFAVYYCHQWSSYPYTFGQGTKLEIK |
| 0.75 nM | 71200 MFI | 1.88 nM | 97% | 0.09 nM | 87.5% | 0.84 nM | 61500 MFI | ~0.7 nM | 2.15 nM | 95.2% | 0.22 nM | 22200 MFI | 1.99 nM | 0.00111 s⁻¹ | 560000 M⁻¹ s⁻¹ | 0.53 nM | 98.7% | hu025.060 (antibody, V domains shown, Humanized 025; also called hu025.60) VH: EVQLVQSGAEVKKPGATVKISCKASGFNIKDYYMHWVQQAPGKGLEWIGRIDPEDAETKYAPKFQGRVTITADTSTNTAYMELSSLRSEDTAVYYCDRGLAYWGQGTLVTVSS VL: EIVLTQSPATLSLSPGERATLSCSASSSVSSSYLYWYQQKPGQAPKLWIYSTSNLASGIPARFSGSGSGTDFTLTISSLEPEDFAVYYCHQWSSYPYTFGQGTKLEIK |
| 0.66 nM | 72800 MFI | 2.07 nM | 98% | 0.1 nM | 85.5% | 1.13 nM | 57800 MFI | ~0.7 nM | 2.6 nM | 97.2% | 0.2 nM | 22400 MFI | 2.67 nM | 0.00172 s⁻¹ | 643000 M⁻¹ s⁻¹ | 0.57 nM | 97.7% | hu025.023 (antibody, V domains shown, Humanized 025; also called hu025.23) VH: EVQLVQSGAEVKKPGATVKISCKVSGFNIKDYYMHWVQQAPGKGLEWIGRIDPEDAETKYAPKFQGRVTITADTSTNTAYMELSSLRSEDTAVYYCDRGLAYWGQGTLVTVSS VL: EIVLTQSPATLSLSPGERATLSCSASSSVSSSYLYWYQQKPGQAPKLWIYSTSNLASGIPARFSGSGSGTDFTLTISSLEPEDFAVYYCHQWSSYPYTFGQGTKLEIK |
